The data set concerns the molecule itself. The data set is described as follows: SEC; as a1, but samples not incubated at 37 °C before the SEC run; monomer to dimer.

This note sets out measurements from paper doi:10.1101/379156, “Probing the Modularity of Megasynthases by Rational Engineering of a Fatty Acid Synthase (FAS) Type I” (bioRxiv, 2018).

B1: mFAS beta-module, construct 8 (2-858+1104-1517+1870-2195) (domain or fragment, Mus musculus, UniProt P19096 2-2195, looked up)
chain: EEVVIAGMSGKLPESENLQEFWANLIGGVDMVTDDDRRWKAGLYGLPKRSGKLKDLSKFDASFFGVHPKQAHTMDPQLRLLLEVSYEAIVDGGINPASLRGTNTGVWVGVSGSEASEALSRDPETLLGYSMVGCQRAMMANRLSFFFDFKGPSIALDTACSSSLLALQNAYQAIRSGECPAALVGGINLLLKPNTSVQFMKLGMLSPDGTCRSFDDSGSGYCRSEAVVAVLLTKKSLARRVYATILNAGTNTDGSKEQGVTFPSGEVQEQLICSLYQPAGLAPESLEYIEAHGTGTKVGDPQELNGITRSLCAFRQAPLLIGSTKSNMGHPEPASGLAALTKVLLSLEHGVWAPNLHFHNPNPEIPALLDGRLQVVDRPLPVRGGNVGINSFGFGGSNVHVILQPNTRQAPAPTAHAALPHLLHASGRTLEAVQDLLEQGRQHSQDLAFVSMLNDIAATPTAAMPFRGYTVLGVEGRVQEVQQVSTNKRPLWFICSGMGTQWRGMGLSLMRLDSFRESILRSDEAVKPLGVKVSDLLLSTDERTFDDIVHAFVSLTAIQIALIDLLTSVGLKPDGIIGHSLGEVACGYADGCLSQREAVLAAYWRGQCIKDAHLPPGSMAAVGLSWEECKQRCPAGVVPACHNSEDTVTISGPQAAVNEFVEQLKQEGVFAKEVRTGGLAFHSYFMEGIAPTLLQALKKVIREPRPRSARWLSTSIPEAQWQSSLARTSSAEYNVNNLVSPVLFQEALWHIPEHAVVLEIAPHALLQAVLKRGVKSSCTIIPLMKRDHKDNLEFFLTNLGKVHLTGINVNPNALFPPVEFPAPRGTPLISPHIKWDHSQTWDVPVAEDFPNGSSSSSSRRQQEQLVPTLEKFVFTPHMEAECLSESTALQKELQLCKGLARALQTKATQQGLKAAMLGQEDPPQHGLPRLLAAACQLQLNGNLQLELGEALAQERLLLPEDPLISGLLNSQALKACVDTALENLSTLKMKVAEVLAGEGHLYSRIPALLNTQPMLQLEYTATDRHPQALKDVQTKLQQHDVAQGQWNPSDPAPSSLGALDLLVCNCALATLGDPALALDNMVAALKEGGFLLVHTVLKGHALGETLACLPSEVQPAPSLLSQEEWESLFSRKALHLVGLKRSFYGTALFLCRRAIPQEKPIFLSVEDTSFQWVDSLKSTLATSSSQPVWLTAMDCPTSGVVGLVNCLRKEPGGHRIRCILLSNLSNTSHAPKLDPGSPELQQVLKHDLVMNVYRDGAWGAFRHFQLEQDKPSKTFCPAHKSYIITGGLGGFGLELARWLVLRGAQRLVLTSRSGIRTGYQAKHIREWRRQGIQVLVSTSNVSSLEGARALIAEATKLGPVGGVFNLAMVLRDAMLENQTPELFQDVNKPKYNGTLNLDRATREACPELDYFVAFSSVSCGRGNAGQTNYGFANSTMERICEQRRHDGLPGLAVQWGAIGDVGIVLEAMGTNDTVIGGTLPQRISSCMEVLDLFLNQPHAVLSSFVLAEKKAVAHGDGDTQRDLVKAVAHILGIRDLAGINLDSTLADLGLDSLMGVEVRQILEREHDLVLPMREVRQLTLRKLQEMSSKTDSATDTT
notes: murine fatty acid synthase 2-2195 with the DH domain (S858 linked with S1104) and the ER domain (P1517 bridged to S1870) deleted; Made from construct 7; also called β-module
As a reminder, the stoichiometry N is the number of molecules, sites or subunits per partner or assembly. On to B1, for which the “stoichiometry N” value worked out at 2.

B2: mFAS gamma-module, construct 7 (2-1517+1870-2195) (domain or fragment, Mus musculus, UniProt P19096 2-2195, looked up)
chain: EEVVIAGMSGKLPESENLQEFWANLIGGVDMVTDDDRRWKAGLYGLPKRSGKLKDLSKFDASFFGVHPKQAHTMDPQLRLLLEVSYEAIVDGGINPASLRGTNTGVWVGVSGSEASEALSRDPETLLGYSMVGCQRAMMANRLSFFFDFKGPSIALDTACSSSLLALQNAYQAIRSGECPAALVGGINLLLKPNTSVQFMKLGMLSPDGTCRSFDDSGSGYCRSEAVVAVLLTKKSLARRVYATILNAGTNTDGSKEQGVTFPSGEVQEQLICSLYQPAGLAPESLEYIEAHGTGTKVGDPQELNGITRSLCAFRQAPLLIGSTKSNMGHPEPASGLAALTKVLLSLEHGVWAPNLHFHNPNPEIPALLDGRLQVVDRPLPVRGGNVGINSFGFGGSNVHVILQPNTRQAPAPTAHAALPHLLHASGRTLEAVQDLLEQGRQHSQDLAFVSMLNDIAATPTAAMPFRGYTVLGVEGRVQEVQQVSTNKRPLWFICSGMGTQWRGMGLSLMRLDSFRESILRSDEAVKPLGVKVSDLLLSTDERTFDDIVHAFVSLTAIQIALIDLLTSVGLKPDGIIGHSLGEVACGYADGCLSQREAVLAAYWRGQCIKDAHLPPGSMAAVGLSWEECKQRCPAGVVPACHNSEDTVTISGPQAAVNEFVEQLKQEGVFAKEVRTGGLAFHSYFMEGIAPTLLQALKKVIREPRPRSARWLSTSIPEAQWQSSLARTSSAEYNVNNLVSPVLFQEALWHIPEHAVVLEIAPHALLQAVLKRGVKSSCTIIPLMKRDHKDNLEFFLTNLGKVHLTGINVNPNALFPPVEFPAPRGTPLISPHIKWDHSQTWDVPVAEDFPNGSSSSSATVYSIDASPESPDHYLVDHCIDGRVIFPGTGYLCLVWKTLARSLGLSLEETPVVFENVSFHQATILPKTGTVALEVRLLEASHAFEVSDTGNLIVSGKVYLWEDPNSKLFDHPEVPTPPESASVSRLTQGEVYKELRLRGYDYGPQFQGICEATLEGEQGKLLWKDNWVTFMDTMLQVSILGSSQQSLQLPTRVTAIYIDPATHRQKVYRLKEDTQVADVTTSRCLGITVSGGIHISRLQTTATSRRQQEQLVPTLEKFVFTPHMEAECLSESTALQKELQLCKGLARALQTKATQQGLKAAMLGQEDPPQHGLPRLLAAACQLQLNGNLQLELGEALAQERLLLPEDPLISGLLNSQALKACVDTALENLSTLKMKVAEVLAGEGHLYSRIPALLNTQPMLQLEYTATDRHPQALKDVQTKLQQHDVAQGQWNPSDPAPSSLGALDLLVCNCALATLGDPALALDNMVAALKEGGFLLVHTVLKGHALGETLACLPSEVQPAPSLLSQEEWESLFSRKALHLVGLKRSFYGTALFLCRRAIPQEKPIFLSVEDTSFQWVDSLKSTLATSSSQPVWLTAMDCPTSGVVGLVNCLRKEPGGHRIRCILLSNLSNTSHAPKLDPGSPELQQVLKHDLVMNVYRDGAWGAFRHFQLEQDKPSKTFCPAHKSYIITGGLGGFGLELARWLVLRGAQRLVLTSRSGIRTGYQAKHIREWRRQGIQVLVSTSNVSSLEGARALIAEATKLGPVGGVFNLAMVLRDAMLENQTPELFQDVNKPKYNGTLNLDRATREACPELDYFVAFSSVSCGRGNAGQTNYGFANSTMERICEQRRHDGLPGLAVQWGAIGDVGIVLEAMGTNDTVIGGTLPQRISSCMEVLDLFLNQPHAVLSSFVLAEKKAVAHGDGDTQRDLVKAVAHILGIRDLAGINLDSTLADLGLDSLMGVEVRQILEREHDLVLPMREVRQLTLRKLQEMSSKTDSATDTT
notes: murine fatty acid synthase 2-2195 with the ER domain deleted (P1517 bridged to S1870); Made from construct 6 as template; also called γ-module
For the protein B2, the “stoichiometry N” value was found to be 2.
